Laboratory results reported in patent US20210395361A1 (Alector, published 2021).

What was measured:
[1] = target: T1, Histidine-tagged human Siglec-5 (NovoProtein) (human, UniProt O15389 17-434, limits assumed); assay: array SPR, antibody immobilized, His-tagged human Siglec-5 (0-500 nM) in solution; apparent affinity
T1 construct: Bought soluble protein; also called His-tagged human Siglec-5; not shown: histidine tag
T1 sequence: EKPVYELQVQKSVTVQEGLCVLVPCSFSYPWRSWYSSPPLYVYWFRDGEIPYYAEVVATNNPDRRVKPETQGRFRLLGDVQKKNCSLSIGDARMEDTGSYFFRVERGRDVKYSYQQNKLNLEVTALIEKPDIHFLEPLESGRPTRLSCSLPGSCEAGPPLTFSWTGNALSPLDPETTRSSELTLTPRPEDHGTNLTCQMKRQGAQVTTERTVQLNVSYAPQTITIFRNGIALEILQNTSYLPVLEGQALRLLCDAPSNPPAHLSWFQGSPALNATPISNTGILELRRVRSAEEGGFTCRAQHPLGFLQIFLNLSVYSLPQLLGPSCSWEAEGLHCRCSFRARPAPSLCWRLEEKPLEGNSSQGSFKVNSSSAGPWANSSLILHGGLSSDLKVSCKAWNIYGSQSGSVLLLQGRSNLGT
Protocol: The apparent binding affinities of the anti-Siglec-5 antibodies were measured by array surface plasmon resonance (SPR), according to standard techniques (Abdiche, et al. (2016) MAbs 8:264-277). Briefly, anti-Siglec-5 antibodies were immobilized on a HC 30M chip at four different densities, at antibody concentration of 10 μg/mL, 2.5 μg/mL, 0.63 μg/mL, and 0.16 μg/mL. Varying concentrations (0-500 nM) of Histidine-tagged human Siglec-5 or cynomolgus Siglec-5 (NovoProtein) were then bound to the captured anti-Siglec-5 surface (5 min injection time, 15 min dissociation time) in HBS-EP⁺/1 mg/mL BSA running buffer. Kinetic analysis was performed using Carterra software to extract association and dissociation rate constants (kₐ and kd, respectively) for each antibody. Apparent affinity constants (KD) were calculated from the ratio kd/kₐ. None of the anti-Siglec-5 antibodies bound to cynomolgus Siglec-5 protein.

human Siglec-14 = target: T2, human Siglec-14 (human, UniProt Q08ET2 17-396); assay: FACS, CHO cells stably transfected with human Siglec-14 (CHO-S14), fluorescent secondary antibody; y-axis Binding (Fold over background); antibody concentration not shown
T2 construct: also called CHO-S14; CHO-S hSiglec-14
T2 sequence: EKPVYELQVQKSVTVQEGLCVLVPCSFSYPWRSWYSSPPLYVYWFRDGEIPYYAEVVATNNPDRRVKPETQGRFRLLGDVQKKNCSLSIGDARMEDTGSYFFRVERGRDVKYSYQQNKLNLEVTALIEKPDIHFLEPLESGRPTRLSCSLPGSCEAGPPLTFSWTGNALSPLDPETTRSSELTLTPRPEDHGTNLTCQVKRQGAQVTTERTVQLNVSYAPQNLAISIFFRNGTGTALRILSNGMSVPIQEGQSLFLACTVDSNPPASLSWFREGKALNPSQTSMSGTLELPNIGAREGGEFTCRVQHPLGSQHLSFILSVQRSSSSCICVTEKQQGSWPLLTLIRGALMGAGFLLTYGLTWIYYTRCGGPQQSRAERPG
Protocol: The anti-Siglec-5 antibodies were evaluated for their ability to bind to CHO cells which were stably transfected with human Siglec-5 (CHO-S5) or human Siglec-14 (CHO-S14). The anti-Siglec-5 antibodies were also evaluated for their ability to bind to primary human neutrophils. Cells were incubated with various dilutions of the anti-Siglec-5 antibodies for 30 minutes on ice in the dark, followed by a 30-minute incubation with a fluorescently-conjugated anti-human IgG secondary antibody. Cells were washed twice in FACS buffer (PBS+2% FBS, 2 mM EDTA), and flow cytometry was performed on a BD FACS Canto. Data were analyzed using FlowJo software (Ashland, Oreg.). In the figures, “hIgG1” and “mIgG1” refer to isotype control antibodies, and “S5/14 1A5” refers to a commercially available antibody that binds both Siglec-5 and Siglec-14 (BioLegend, clone 1A5).

Row | Binder | Kd [1] | koff [1] | kon [1] | binding result (human Siglec-14)
1 | S5-182 (antibody, V domains shown, Mouse-derived variable domains; expressed in mammalian cells as full antibody; hIgG1 isotype control) VH: QAYLQQSGAELVKPGASVKLSCKASGYTFTSYWLHWVKQRPGQGLEWIGMIHPNSGSTDYNERFKSKATLIVDKSSSTAYMQLSSLTSEDSAVYYCAKTFYYFDYWGQGTALTVSS VL: DVVMTQSPSSMYASLGERVTITCKASQDINSYLSWFQQKPGKSPKTLIYRANRLVDGVPSRFSGSGSGQDYSLTISSLEYEDMGIYYCLQYDELYTFGGGTKLEIK | 5.3 nM | 0.00085 s⁻¹ | 160000 M⁻¹ s⁻¹ | no binding
2 | S5-183 (antibody, V domains shown, Mouse-derived variable domains; expressed in mammalian cells as full antibody; hIgG1 isotype control) VH: QAYLQQSGPGLVAPSQSLSITCTVSGFSVTSYGVSWVRQPPGKGLEWLGVIWGDGSTNYHSDLISRLSISKDNSKSQVFLKLNSLQIADTATYYCARPRAFYYGSRGYWYFDVWGTGTTVAVSS VL: DIVMTQSPASLSASVGETVTITCRASENIYSYLAWYQQKQGKSPQLLVYNTKTLVEGVPSRFSGSGSDTQFSLKINSLQPEDFGTYYCQHHYGPPPTFGTGTKLELK | 61 nM | 0.0013 s⁻¹ | 21000 M⁻¹ s⁻¹ | no binding
3 | S5-202 (antibody, V domains shown, Mouse-derived variable domains; expressed in mammalian cells as full antibody; also called S5-PN202) VH: QAYLQQSGPGLVAPSQSLSITCTVSGLSLTSYGVSWVRQPPGKGLEWLGVIWGDGSTNYHSALISRLSISKDNSKSQVFLKLNSLQTDDTATYYCAKPGAFYYGSRYYWYFDVWGTGTTVTVSS VL: DIQMTQAHKVMSTSVGDRVSITCKASQDVSTAVAWYQQKPGQSPKLLIYSASYRYTGVPDRFTGSGSGTDFTFTISSVQAEDLAVYYCQQHYSPPPTFGGGTRREIK | 31 nM | 0.0011 s⁻¹ | 36000 M⁻¹ s⁻¹ | no binding
